PMC9191634 (Proceedings of the National Academy of Sciences of the …, 2022)

Type: physicochemical
Details: n = 3

In the case of “AgTx2: scorpion toxin that binds in the external pore region of K+ channels”, the “partitioning into LUVs” value is reported as “did not partition”.
